{"source": "patent US20210101944A1", "about": "(WEST CHINA HOSPITAL SICHUAN UNIVERSITY, published 2021)", "key": {"[1]": {"target": "T1, death receptor fusion protein DR4-Fc (UniProt O00220 24-239, limits assumed)", "T1 construct": "Captured on a protein A-coated BLI probe; also called TRAIL R1; not shown: Fc part", "T1 sequence (O00220 24-239 limits assumed)": "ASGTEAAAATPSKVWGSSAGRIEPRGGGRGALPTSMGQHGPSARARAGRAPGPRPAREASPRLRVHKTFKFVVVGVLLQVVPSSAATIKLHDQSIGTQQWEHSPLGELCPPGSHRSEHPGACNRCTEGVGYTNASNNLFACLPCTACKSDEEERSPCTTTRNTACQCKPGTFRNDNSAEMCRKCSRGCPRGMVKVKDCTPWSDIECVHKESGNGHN", "test": "BLI, DR4-Fc on protein A-coated probe; IgBD-TRAIL01 to DR4-Fc"}, "[2]": {"target": "T2, death receptor fusion protein DR5-Fc (UniProt O14763 56-182, limits assumed)", "T2 construct": "Captured on a protein A-coated BLI probe; also called TRAIL R2; not shown: Fc part", "T2 sequence (O14763 56-182 limits assumed)": "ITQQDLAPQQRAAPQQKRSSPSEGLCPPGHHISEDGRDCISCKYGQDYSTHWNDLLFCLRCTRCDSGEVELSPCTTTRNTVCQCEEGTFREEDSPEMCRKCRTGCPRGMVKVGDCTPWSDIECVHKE", "test": "BLI, DR5-Fc on protein A-coated probe; IgBD-TRAIL01 to DR5-Fc"}, "[3]": {"target": "T2, death receptor fusion protein DR5-Fc", "test": "Biolayer interferometry, DR5-Fc captured on a protein A probe, IgBD-TRAIL01 at 10-500 nM", "method": "(§1) The binding constant Ka and the dissociation constant Kd were determined, and then the affinity KD was calculated according to the formula (KD=Kd/Ka)."}, "Human IgG": {"target": "T3, Human IgG (human)", "T3 construct": "also called hIgG", "test": "ELISA, coated hIgG, pH 7.4, detection with biotin-labeled anti-TRAIL antibody and HRP-streptavidin", "method": "1) ELISA Human IgG (hIgG) or mouse IgG (mIgG) was coated in a well plate for ELISA. […] After incubating at 37° C. for 1 h, excess protein was removed."}, "[4]": {"target": "T1, death receptor fusion protein DR4-Fc", "test": "BLI, DR4-Fc on protein A-coated probe (method of Example 3)", "method": "as §1"}, "[5]": {"target": "T2, death receptor fusion protein DR5-Fc", "test": "BLI, DR5-Fc on protein A-coated probe (method of Example 3)", "method": "as §1"}, "[6]": {"target": "T1, death receptor fusion protein DR4-Fc", "test": "BLI, DR4-Fc on protein A-coated probe; TRAIL01 to DR4-Fc", "method": "as §1"}, "[7]": {"target": "T2, death receptor fusion protein DR5-Fc", "test": "BLI, DR5-Fc on protein A-coated probe; TRAIL01 to DR5-Fc", "method": "as §1"}, "[8]": {"target": "T2, death receptor fusion protein DR5-Fc", "test": "Biolayer interferometry, DR5-Fc captured on a protein A probe, TRAIL01 at 5-250 nM", "method": "as §1"}}}
{"binder": "fusion protein IgBD-TRAIL01 (other, also called IgBD-TRAIL1) TTYKLVINGKTLKGETTTKAVDAETAAAAFAQYARRNGVDGVWTYDDATKTFTVTEGGGGSGGGGSGGGGSVRERGPQRVAAHITGTRGRSNTLSSPNSKNEKALGRKINSWESSRSGHSFLSNLHLRNGELVIQEKGFYYIYSQTYFRFQEEIKENTKNDKQMVQYIYKYTSYPDPILLMKSARNSCWSKDAEYGLYSIYQGGLFELKKDDRIFVSVTNEHLIDMDHEASFFGAFLVG", "values": [{"measurement": "Kd", "setting": "[1]", "result": 4.33, "unit": "nM"}, {"measurement": "Kd", "setting": "[2]", "result": 1.43, "unit": "nM"}, {"measurement": "Kd", "setting": "[3]", "result": 1.5, "unit": "nM"}, {"measurement": "EC50 (read off the curve)", "setting": "Human IgG", "result": "~0.4", "unit": "nM"}]}
{"binder": "fusion protein IgBD-TRAIL02 (other, No tag is stated) TTYKLVINGKTLKGETTTKAVDAETAEKAFKQYANDNGVDGVWTYDDATKTFTVTEGGGGSGGGGSGGGGSVRERGPQRVAAHITGTRGRSNTLSSPNSKNEKALGRKINSWESSRSGHSFLSNLHLRNGELVIQEKGFYYIYSQTYFRFQEEIKENTKNDKQMVQYIYKYTSYPDPILLMKSARNSCWSKDAEYGLYSIYQGGLFELKKDDRIFVSVTNEHLIDMDHEASFFGAFLVG", "values": [{"measurement": "Kd", "setting": "[4]", "result": 3.96, "unit": "nM"}, {"measurement": "Kd", "setting": "[5]", "result": 1.79, "unit": "nM"}]}
{"binder": "TRAIL01 (ligand, Control protein without IgBD; also called TRAIL1) VRERGPQRVAAHITGTRGRSNTLSSPNSKNEKALGRKINSWESSRSGHSFLSNLHLRNGELVIQEKGFYYIYSQTYFRFQEEIKENTKNDKQMVQYIYKYTSYPDPILLMKSARNSCWSKDAEYGLYSIYQGGLFELKKDDRIFVSVTNEHLIDMDHEASFFGAFLVG", "values": [{"measurement": "Kd", "setting": "[6]", "result": 4, "unit": "nM"}, {"measurement": "Kd", "setting": "[7]", "result": 1.5, "unit": "nM"}, {"measurement": "Kd", "setting": "[8]", "result": 1.43, "unit": "nM"}]}
